# Laboratory results taken from publication PMC11417369, “DNA sequence and chromatin differentiate sequence-specific transcription factor binding in the human malaria parasite Plasmodium falciparum”.
# T1: HDP1 homeodomain-like (Plasmodium falciparum, UniProt Q8IKH4 2990-3078)
# T1 sequence: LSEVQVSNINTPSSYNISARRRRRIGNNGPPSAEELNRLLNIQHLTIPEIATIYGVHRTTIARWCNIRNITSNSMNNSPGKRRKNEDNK
# T2: SIP2 D1 (Plasmodium falciparum, UniProt C6KSN9 177-235)
# T2 sequence: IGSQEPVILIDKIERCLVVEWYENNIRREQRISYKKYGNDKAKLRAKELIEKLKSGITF
# B1: GTGCAC_negctrl_site23 (dsDNA)
# DNA 1: TCCTATATATAAATATTAATATATATGTATTGGTAT
# DNA 2: ATACCAATACATATATATTAATATTTATATATAGGA
# B2: GTGCAC_negctrl_site735 (dsDNA)
# DNA 1: AAAATTAATTATTACAAAAATGAAAAGACATATTTT
# DNA 2: AAAATATGTCTTTTCATTTTTGTAATAATTAATTTT
# B3: GTGCAC_negctrl_site554 (dsDNA)
# DNA 1: AAAAAAAAAAAATATTGTAGAATATGATGACTTTGT
# DNA 2: ACAAAGTCATCATATTCTACAATATTTTTTTTTTTT
# B4: GTGCAC_site9426 (dsDNA)
# DNA 1: ACGTGTATTTATTTAGTGCACTTTATATTTTTTCTT
# DNA 2: AAGAAAAAATATAAAGTGCACTAAATAAATACACGT
# B5: GTGCAC_negctrl_site132 (dsDNA)
# DNA 1: AAAGTAACACACTAATATTTTAACAAATAATATATA
# DNA 2: TATATATTATTTGTTAAAATATTAGTGTGTTACTTT
# B6: GTGCAC_negctrl_site310 (dsDNA)
# DNA 1: TTACTAAAAATTATTAATAAATAATAATTATAAATT
# DNA 2: AATTTATAATTATTATTTATTAATAATTTTTAGTAA
# B7: GTGCAC_negctrl_site493 (dsDNA)
# DNA 1: TTCTCAAATATAATAAAATTATAAAGTGACCTAACT
# DNA 2: AGTTAGGTCACTTTATAATTTTATTATATTTGAGAA
# B8: GTGCAC_negctrl_site443 (dsDNA)
# DNA 1: ATATAATTTGTTATACTAACTTTTTAATTATTGATA
# DNA 2: TATCAATAATTAAAAAGTTAGTATAACAAATTATAT
# B9: GTGCAC_negctrl_site82 (dsDNA)
# DNA 1: CTGATATATTATTTATCTGAATATATTAATATGTAT
# DNA 2: ATACATATTAATATATTCAGATAAATAATATATCAG
# B10: GTGCAC_negctrl_site503 (dsDNA)
# DNA 1: AAACAAAAGTAGAAGGTAGAGTATTTTATATTTAAA
# DNA 2: TTTAAATATAAAATACTCTACCTTCTACTTTTGTTT
# B11: GTGCAC_negctrl_site167 (dsDNA)
# DNA 1: TTGTATTTACACGATCAACCAAATGGTATATAAATA
# DNA 2: TATTTATATACCATTTGGTTGATCGTGTAAATACAA
# B12: GTGCAC_negctrl_site610 (dsDNA)
# DNA 1: AATATATGGTTTCATGATATAAAATTCAATTTAATG
# DNA 2: CATTAAATTGAATTTTATATCATGAAACCATATATT
# B13: GTGCAC_negctrl_site163 (dsDNA)
# DNA 1: ATTTTTTTATAAAATTTTTATATATTATATAAATAT
# DNA 2: ATATTTATATAATATATAAAAATTTTATAAAAAAAT
# B14: GTGCAC_negctrl_site522 (dsDNA)
# DNA 1: TTTTTTACGCATAACTTAATATGAGAATCCCTTTCT
# DNA 2: AGAAAGGGATTCTCATATTAAGTTATGCGTAAAAAA
# B15: GTGCAC_negctrl_site520 (dsDNA)
# DNA 1: AAAAAAAAATAAATAAATATATATAATATTTATGTT
# DNA 2: AACATAAATATTATATATATTTATTTATTTTTTTTT
# B16: GTGCAC_negctrl_site402 (dsDNA)
# DNA 1: AAAAAAAAAATACAACAAAGTTAAATAAATAAATAA
# DNA 2: TTATTTATTTATTTAACTTTGTTGTATTTTTTTTTT
# B17: GTGCAC_negctrl_site350 (dsDNA)
# DNA 1: TTCACTTTTTTTTTTTTTTTTTTTTTTTTTTTTATT
# DNA 2: AATAAAAAAAAAAAAAAAAAAAAAAAAAAAAGTGAA
# B18: GTGCAC_negctrl_site204 (dsDNA)
# DNA 1: TAATATGTTTATGGTAACATACAAAAATGTATATAT
# DNA 2: ATATATACATTTTTGTATGTTACCATAAACATATTA
# B19: GTGCAC_negctrl_site259 (dsDNA)
# DNA 1: TATTTACAACAAATTTAATTATTTTTAACTTATAAA
# DNA 2: TTTATAAGTTAAAAATAATTAAATTTGTTGTAAATA
# Biological target: T1, HDP1 homeodomain-like
# Assay: gcPBM; about 25 ug protein; PBS, 1% milk, 0.2 mg/ml BSA, salmon testes DNA, 0.03% Triton X-100
# Settings: tags: N-terminal GST (pGEX-4T-1), kept; chain copies: 2; label: surface-attached array probe
row,Binder,binding signal
1,B1,"6.35 ln median PBM intensity, better of two orientations"
2,B2,"5.96 ln median PBM intensity, better of two orientations"
3,B3,"6.29 ln median PBM intensity, better of two orientations"
4,B4,"11.3 ln median PBM intensity, better of two orientations"
5,B5,"6.15 ln median PBM intensity, better of two orientations"
6,B6,"5.75 ln median PBM intensity, better of two orientations"
7,B7,"6.1 ln median PBM intensity, better of two orientations"
8,B8,"6.13 ln median PBM intensity, better of two orientations"
9,B9,"6.08 ln median PBM intensity, better of two orientations"
10,B10,"6.07 ln median PBM intensity, better of two orientations"
11,B11,"6.23 ln median PBM intensity, better of two orientations"
12,B12,"6.09 ln median PBM intensity, better of two orientations"
13,B13,"6.2 ln median PBM intensity, better of two orientations"
14,B14,"6.33 ln median PBM intensity, better of two orientations"
15,B15,"6.16 ln median PBM intensity, better of two orientations"
16,B16,"6.34 ln median PBM intensity, better of two orientations"
17,B17,"6 ln median PBM intensity, better of two orientations"
18,B18,"6.05 ln median PBM intensity, better of two orientations"
19,B19,"6.18 ln median PBM intensity, better of two orientations"

# Biological target: T2, SIP2 D1
# Assay: as above
# Settings: tags: N-terminal GST (pGEX-4T-1), kept; label: surface-attached array probe
row,Binder,binding signal
1,B1,"6.91 ln median PBM intensity, better of two orientations"
2,B2,"6.68 ln median PBM intensity, better of two orientations"
3,B3,"6.85 ln median PBM intensity, better of two orientations"
4,B4,"10.7 ln median PBM intensity, better of two orientations"
5,B5,"6.76 ln median PBM intensity, better of two orientations"
6,B6,"6.58 ln median PBM intensity, better of two orientations"
7,B7,"6.88 ln median PBM intensity, better of two orientations"
8,B8,"6.82 ln median PBM intensity, better of two orientations"
9,B9,"6.78 ln median PBM intensity, better of two orientations"
10,B10,"6.67 ln median PBM intensity, better of two orientations"
11,B11,"6.87 ln median PBM intensity, better of two orientations"
12,B12,"6.78 ln median PBM intensity, better of two orientations"
13,B13,"6.9 ln median PBM intensity, better of two orientations"
14,B14,"6.89 ln median PBM intensity, better of two orientations"
15,B15,"6.84 ln median PBM intensity, better of two orientations"
16,B16,"6.65 ln median PBM intensity, better of two orientations"
17,B17,"6.86 ln median PBM intensity, better of two orientations"
18,B18,"6.79 ln median PBM intensity, better of two orientations"
19,B19,"6.7 ln median PBM intensity, better of two orientations"
